# In article PMC11432383:
# How the values were obtained:
# [1] = target: SyMRP, MoxR AAA+ ATPase of Synechococcus sp. strain NKBG15041c, with a His-tag at the C-terminus (Synechococcus sp. strain NKBG15041c); experiment: atomic force microscopy; high-speed AFM, sample on Ni2+-coated mica, washed with 50 mM Tris-HCl pH 7.5
# [2] = target: SyMRP, MoxR AAA+ ATPase of Synechococcus sp. strain NKBG15041c, with a His-tag at the C-terminus (Synechococcus sp. strain NKBG15041c); experiment: negative-stain transmission electron microscopy; carbon-coated copper grids, 2.5% uranyl acetate, 50,000x, 100 kV
# [3] = target: SyMRP, MoxR AAA+ ATPase of Synechococcus sp. strain NKBG15041c, with a His-tag at the C-terminus (Synechococcus sp. strain NKBG15041c); experiment: SEC; HPLC gel filtration column SB-804HQ, 50 mM Tris-HCl pH 7.5, 0.1 mM EDTA, 150 mM NaCl, 0.5 mL/min; mass from marker proteins (apparent)
# [4] = target: SyMRP, MoxR AAA+ ATPase of Synechococcus sp. strain NKBG15041c, with a His-tag at the C-terminus (Synechococcus sp. strain NKBG15041c); experiment: AUC; sedimentation velocity, 2.0 mg/mL SyMRP, 50 mM Tris-HCl pH 8.0, 200 mM NaCl, without ATP, 25 °C, 60,000 rpm, interference optics, SEDFIT
# [5] = target: SyMRP, MoxR AAA+ ATPase of Synechococcus sp. strain NKBG15041c, with a His-tag at the C-terminus (Synechococcus sp. strain NKBG15041c); experiment: as above; remark: listed apart in the source
# [6] = target: SyMRP, MoxR AAA+ ATPase of Synechococcus sp. strain NKBG15041c, with a His-tag at the C-terminus (Synechococcus sp. strain NKBG15041c); experiment: AUC; sedimentation velocity, 2.0 mg/mL SyMRP, 50 mM Tris-HCl pH 8.0, 200 mM NaCl, with 1 mM ATP, 25 °C, 60,000 rpm, interference optics, SEDFIT
substance,measurement,setting,value
"SyMRP, MoxR AAA+ ATPase of Synechococcus sp. strain NKBG15041c, with a His-tag at the C-terminus (enzyme)",stoichiometry N,[1],6
same,stoichiometry N,[2],6
same,stoichiometry N,[3],6
same,stoichiometry N,[4],6
same,weight fraction w of the 4.18 S component (small oligomer),[4],4%
same,weight fraction w of the 7.60 S component (hexamer),[4],91.4%
same,stoichiometry N,[5],2
same,weight fraction w of the 4.26 S component (small oligomer),[6],2.6%
same,weight fraction w of the 7.53 S component (main component),[6],90.9%
